From patent publication US20260167699A1 (Chugai, published 2026)

B1: GpH7-A5/GpH7-B3 variant S337_20W/GpL16-k0 (antibody, human IgG1, kappa)
heavy 1: not shown
heavy 2: not shown
light: DIVMTQSPLSLPVTPGEPASISCQASESLVHSNRNTYLHWYLQKPGQSPQLLIYKVSNRFSGVPDRFSGSGSGTDFTLKISRVEAEDVGVYYCSQNTHVPPTFGQGTKVEIERTVAAPSVFIFPPSDEQLKSGTASVVCLLNNFYPREAKVQWKVDNALQSGNSQESVTEQDSKDSTYSLSSTLTLSKADYEKHKVYACEVTHQGLSSPVTKSFNRGEC
notes: copies: 1 + 1 + 2
B2: GpH7-A5/GpH7-B3 variant S337_18N/GpL16-k0 (antibody, human IgG1, kappa)
heavy 1: not shown
heavy 2: not shown
light: B1 light
notes: copies: 1 + 1 + 2
B3: GpH7-A5/GpH7-B3 variant S324_11K/GpL16-k0 (antibody, human IgG1, kappa)
heavy 1: not shown
heavy 2: not shown
light: B1 light
notes: copies: 1 + 1 + 2
B4: GpH7-A5/GpH7-B3 variant S267_18N/GpL16-k0 (antibody, human IgG1, kappa)
heavy 1: not shown
heavy 2: not shown
light: B1 light
notes: copies: 1 + 1 + 2
B5: GpH7-A5/GpH7-B3 variant S324_08L/GpL16-k0 (antibody, human IgG1, kappa)
heavy 1: not shown
heavy 2: not shown
light: B1 light
notes: copies: 1 + 1 + 2
B6: GpH7-A5/GpH7-B3 variant S267_06M/GpL16-k0 (antibody, human IgG1, kappa)
heavy 1: not shown
heavy 2: not shown
light: B1 light
notes: copies: 1 + 1 + 2
B7: GpH7-A5/GpH7-B3 variant S298_14T/GpL16-k0 (antibody, human IgG1, kappa)
heavy 1: not shown
heavy 2: not shown
light: B1 light
notes: copies: 1 + 1 + 2
B8: GpH7-A5/GpH7-B3 variant S324_20W/GpL16-k0 (antibody, human IgG1, kappa)
heavy 1: not shown
heavy 2: not shown
light: B1 light
notes: copies: 1 + 1 + 2
B9: GpH7-A5/GpH7-B3 variant S337_10E/GpL16-k0 (antibody, human IgG1, kappa)
heavy 1: not shown
heavy 2: not shown
light: B1 light
notes: copies: 1 + 1 + 2
B10: GpH7-A5/GpH7-B3 variant S298_02A/GpL16-k0 (antibody, human IgG1, kappa)
heavy 1: not shown
heavy 2: not shown
light: B1 light
notes: copies: 1 + 1 + 2
B11: GpH7-A5/GpH7-B3 variant S337_03V/GpL16-k0 (antibody, human IgG1, kappa)
heavy 1: not shown
heavy 2: not shown
light: B1 light
notes: copies: 1 + 1 + 2
B12: GpH7-A5/GpH7-B3 variant S324_18N/GpL16-k0 (antibody, human IgG1, kappa)
heavy 1: not shown
heavy 2: not shown
light: B1 light
notes: copies: 1 + 1 + 2
B13: GpH7-A5/GpH7-B3 variant S267_10E/GpL16-k0 (antibody, human IgG1, kappa)
heavy 1: not shown
heavy 2: not shown
light: B1 light
notes: copies: 1 + 1 + 2
B14: GpH7-A5/GpH7-B3 variant S324_10E/GpL16-k0 (antibody, human IgG1, kappa)
heavy 1: not shown
heavy 2: not shown
light: B1 light
notes: copies: 1 + 1 + 2
B15: GpH7-A5/GpH7-B3 variant S324_07I/GpL16-k0 (antibody, human IgG1, kappa)
heavy 1: not shown
heavy 2: not shown
light: B1 light
notes: copies: 1 + 1 + 2
B16: GpH7-A5/GpH7-B3 variant S324_15Y/GpL16-k0 (antibody, human IgG1, kappa)
heavy 1: not shown
heavy 2: not shown
light: B1 light
notes: copies: 1 + 1 + 2
B17: GpH7-A5/GpH7-B3 variant S337_07I/GpL16-k0 (antibody, human IgG1, kappa)
heavy 1: not shown
heavy 2: not shown
light: B1 light
notes: copies: 1 + 1 + 2
B18: GpH7-A5/GpH7-B3 variant S324_19Q/GpL16-k0 (antibody, human IgG1, kappa)
heavy 1: not shown
heavy 2: not shown
light: B1 light
notes: copies: 1 + 1 + 2
B19: GpH7-A5/GpH7-B3 variant S324_12R/GpL16-k0 (antibody, human IgG1, kappa)
heavy 1: not shown
heavy 2: not shown
light: B1 light
notes: copies: 1 + 1 + 2
B20: GpH7-A5/GpH7-B3 variant S324_04F/GpL16-k0 (antibody, human IgG1, kappa)
heavy 1: not shown
heavy 2: not shown
light: B1 light
notes: copies: 1 + 1 + 2
B21: GpH7-A5/GpH7-B3 variant S298_18N/GpL16-k0 (antibody, human IgG1, kappa)
heavy 1: not shown
heavy 2: not shown
light: B1 light
notes: copies: 1 + 1 + 2
B22: GpH7-A5/GpH7-B3 variant S298_01G/GpL16-k0 (antibody, human IgG1, kappa)
heavy 1: not shown
heavy 2: not shown
light: B1 light
notes: copies: 1 + 1 + 2
B23: GpH7-A5/GpH7-B3 variant S298_12R/GpL16-k0 (antibody, human IgG1, kappa)
heavy 1: not shown
heavy 2: not shown
light: B1 light
notes: copies: 1 + 1 + 2
B24: GpH7-A5/GpH7-B3 variant S337_16H/GpL16-k0 (antibody, human IgG1, kappa)
heavy 1: not shown
heavy 2: not shown
light: B1 light
notes: copies: 1 + 1 + 2
B25: GpH7-A5/GpH7-B3 variant S267_09D/GpL16-k0 (antibody, human IgG1, kappa)
heavy 1: not shown
heavy 2: not shown
light: B1 light
notes: copies: 1 + 1 + 2
B26: GpH7-A5/GpH7-B3 variant S324_05P/GpL16-k0 (antibody, human IgG1, kappa)
heavy 1: not shown
heavy 2: not shown
light: B1 light
notes: copies: 1 + 1 + 2
B27: GpH7-A5/GpH7-B3 variant S298_06M/GpL16-k0 (antibody, human IgG1, kappa)
heavy 1: not shown
heavy 2: not shown
light: B1 light
notes: copies: 1 + 1 + 2
B28: GpH7-A5/GpH7-B3 variant S239_19Q/GpL16-k0 (antibody, human IgG1, kappa)
heavy 1: not shown
heavy 2: not shown
light: B1 light
notes: copies: 1 + 1 + 2
B29: GpH7-A5/GpH7-B3 variant S337_06M/GpL16-k0 (antibody, human IgG1, kappa)
heavy 1: not shown
heavy 2: not shown
light: B1 light
notes: copies: 1 + 1 + 2
B30: GpH7-A5/GpH7-B3 variant S337_08L/GpL16-k0 (antibody, human IgG1, kappa)
heavy 1: not shown
heavy 2: not shown
light: B1 light
notes: copies: 1 + 1 + 2
B31: GpH7-A5/GpH7-B3 variant S324_16H/GpL16-k0 (antibody, human IgG1, kappa)
heavy 1: not shown
heavy 2: not shown
light: B1 light
notes: copies: 1 + 1 + 2

These binders were tested against T1, FcγRIIIa (human, UniProt P08637 17-208) (assay: SPR (Biacore);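 note: antibody variants captured on an SPR sensor chip, with FcγRIIIa passed over as analyte in HBS-EP+ buffer at 25 °C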).
T1 construct: extracellular domain; also called 3a; FcγRIIIa extracellular domain
T1 sequence (P08637 other isoform, or with tags, fused parts or gaps): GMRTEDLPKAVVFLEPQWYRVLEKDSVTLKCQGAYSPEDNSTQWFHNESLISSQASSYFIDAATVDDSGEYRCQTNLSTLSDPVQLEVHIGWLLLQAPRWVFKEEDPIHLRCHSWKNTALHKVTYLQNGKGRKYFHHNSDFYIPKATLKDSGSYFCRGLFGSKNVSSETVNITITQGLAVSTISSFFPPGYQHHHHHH

Binder | He/Con 3a
B1 | 93.8 % of GpH7-A5/GpH7-B3/GpL16-k0
B2 | 96.9 % of GpH7-A5/GpH7-B3/GpL16-k0
B3 | 90.2 % of GpH7-A5/GpH7-B3/GpL16-k0
B4 | 52 % of GpH7-A5/GpH7-B3/GpL16-k0
B5 | 95.5 % of GpH7-A5/GpH7-B3/GpL16-k0
B6 | 65.3 % of GpH7-A5/GpH7-B3/GpL16-k0
B7 | 106 % of GpH7-A5/GpH7-B3/GpL16-k0
B8 | 111 % of GpH7-A5/GpH7-B3/GpL16-k0
B9 | 97.8 % of GpH7-A5/GpH7-B3/GpL16-k0
B10 | 151 % of GpH7-A5/GpH7-B3/GpL16-k0
B11 | 87.1 % of GpH7-A5/GpH7-B3/GpL16-k0
B12 | 103 % of GpH7-A5/GpH7-B3/GpL16-k0
B13 | 90.9 % of GpH7-A5/GpH7-B3/GpL16-k0
B14 | 108 % of GpH7-A5/GpH7-B3/GpL16-k0
B15 | 101 % of GpH7-A5/GpH7-B3/GpL16-k0
B16 | 110 % of GpH7-A5/GpH7-B3/GpL16-k0

Binder | He/Con 3a
B17 | 88.3 % of GpH7-A5/GpH7-B3/GpL16-k0
B18 | 96.2 % of GpH7-A5/GpH7-B3/GpL16-k0
B19 | 98.1 % of GpH7-A5/GpH7-B3/GpL16-k0
B20 | 99.3 % of GpH7-A5/GpH7-B3/GpL16-k0
B21 | 51.4 % of GpH7-A5/GpH7-B3/GpL16-k0
B22 | 74.9 % of GpH7-A5/GpH7-B3/GpL16-k0
B23 | 52.1 % of GpH7-A5/GpH7-B3/GpL16-k0
B24 | 100 % of GpH7-A5/GpH7-B3/GpL16-k0
B25 | 179 % of GpH7-A5/GpH7-B3/GpL16-k0
B26 | 72.3 % of GpH7-A5/GpH7-B3/GpL16-k0
B27 | 87.2 % of GpH7-A5/GpH7-B3/GpL16-k0
B28 | 53.8 % of GpH7-A5/GpH7-B3/GpL16-k0
B29 | 89.7 % of GpH7-A5/GpH7-B3/GpL16-k0
B30 | 90.2 % of GpH7-A5/GpH7-B3/GpL16-k0
B31 | 113 % of GpH7-A5/GpH7-B3/GpL16-k0
